Assay results from patent publication US11957716B2 (Immatics Biotechnologies GmbH, priority 2021, dated 2024).

Key:
[1] = tested on: HLA-A*01:01, HLA-A*02:01, HLA-A*03:01, HLA-A*24:02, HLA-B*07:02, HLA-B*08:01 and HLA-B*44:02; assay: HLA alleles the peptides bind to (Table 7); type: binding, human; settings: allotype from the group HLA-A*01:01, HLA-A*02:01, HLA-A*03:01, HLA-A*24:02, HLA-B*07:02, HLA-B*08:01, HLA-B*44:02
From the text: However, due to similarities in binding pattern such as the relevant anchoring positions some peptides bind to more than one allele, such an overlap is most likely, but not limited to, HLA-A*01 binding peptides also binding to HLA-B*15, HLA-A*03 binding peptides also binding to HLA-A*11, HLA-B*07 binding peptides also binding to HLA-B*35 and HLA-B*51.

[2] = target: HLA-A*24:02 (Homo sapiens, UniProt P04439, D101N/D140Y/D185E/E176V/E190D/F33S/G103R/G107R/I119L/I121M/I306V/K335N/L105A/L180Q/L300P/N151K/N90K/Q86E/Q94H/R106L/R138H/R89G/T104I/T345S/V100E/W191G/Y123F); assay: MHC binding assay, UV-ligand exchange ELISA; settings: peptide exchange yield, binding to HLA-A*24:02
From the text: (§1) Candidate peptides for T cell based therapies according to the present invention were further tested for their MHC binding capacity (affinity). The individual peptide-MHC complexes were produced by UV-ligand exchange, where a UV-sensitive peptide is cleaved upon UV-irradiation and exchanged with the peptide of interest as analyzed. Only peptide candidates that can effectively bind and stabilize the peptide-receptive MHC molecules prevent dissociation of the MHC complexes. To determine the yield of the exchange reaction, an ELISA was performed based on the detection of the light chain (β2m) of stabilized MHC complexes. The assay was performed as generally described in Rodenko et al. (Rodenko et al., 2006).
(§2) 96 well MAXISorp plates (NUNC) were coated over night with 2 μg/ml streptavidin in PBS at room temperature, washed 4× and blocked for 1 h at 37° C. in 2% BSA containing blocking buffer. Refolded HLA-A*02:01/MLA-001 monomers served as standards, covering the range of 15-500 ng/ml. Peptide-MHC monomers of the UV-exchange reaction were diluted 100-fold in blocking buffer. Samples were incubated for 1 h at 37° C., washed four times, incubated with 2 μg/ml HRP conjugated anti-82m for 1 h at 37° C., washed again and detected with TMB solution that is stopped with […]. Absorption was measured at 450 nm. Candidate peptides that show a high exchange yield (preferably higher than 50%, most preferred higher than 75%) are generally preferred for a generation and production of antibodies or fragments thereof, and/or T cell receptors or fragments thereof, as they show sufficient avidity to the MHC molecules and prevent dissociation of the MHC complexes.

[3] = target: HLA-B*07:0 (Homo sapiens, UniProt P01889); assay: MHC binding assay, UV-ligand exchange ELISA; settings: peptide exchange yield, binding to HLA-B*07:0
From the text: as §1, §2

In the case of “3 (VYIASSFKI; listed as Homo sapiens) [compound 3]”, the “Binders (HLA alleles the peptides according to the invention bind to)” value (from here on “Binders”) [1] is reported as “HLA-A*24:02” and the Peptide exchange [2] is reported as “++++ (75% = ++++)”.
For “6 (SHSLPAFTL; listed as Homo sapiens) [compound 6]”, the “Binders” value [1] was “HLA-A*24:02” and the Peptide exchange [2] was “++ (20% = ++)”.
With “7 (IYIPTNSIYKF; listed as Homo sapiens) [compound 7]” the “Binders” value [1] was “HLA-A*24:02” and the Peptide exchange [2] was “++++ (75% = ++++)”.
With “13 (LYDTVTHTF; listed as Homo sapiens) [compound 13]” the “Binders” value [1] was “HLA-A*24:02” and the Peptide exchange [2] was “++++ (75% = ++++)”.
“14 (ILAPPQRISF; listed as Homo sapiens) [compound 14]” was tested, and the “Binders” value [1] was “HLA-A*24:02” and the Peptide exchange [2] was “++++ (75% = ++++)”.
In the case of “16 (NFHTLAQQLLF; listed as Homo sapiens) [compound 16]”, the “Binders” value [1] is reported as “HLA-A*24:02” and the Peptide exchange [2] is reported as “++++ (75% = ++++)”.
“31 (VFLLLPYPRF; listed as Homo sapiens) [compound 31]” was tested, and the “Binders” value [1] was “HLA-A*24:02” and the Peptide exchange [2] was “++++ (75% = ++++)”.
In the case of “33 (AYIPFPPLI; listed as Homo sapiens) [compound 33]”, the “Binders” value [1] is reported as “HLA-A*24:02” and the Peptide exchange [2] is reported as “++++ (75% = ++++)”.
In the case of “40 (LYQTTIELF; listed as Homo sapiens) [compound 40]”, the “Binders” value [1] is reported as “HLA-A*24:02” and the Peptide exchange [2] is reported as “++++ (75% = ++++)”.
“43 (VFIPSVINL; listed as Homo sapiens) [compound 43]” was tested, and the “Binders” value [1] was “HLA-A*24:02” and the Peptide exchange [2] was “++++ (75% = ++++)”.
In the case of “47 (LYIFTTRPF; listed as Homo sapiens) [compound 47]”, the “Binders” value [1] is reported as “HLA-A*24:02” and the Peptide exchange [2] is reported as “++++ (75% = ++++)”.
For “49 (IYFHLNNWTI; listed as Homo sapiens) [compound 49]”, the “Binders” value [1] was “HLA-A*24:02” and the Peptide exchange [2] was “++++ (75% = ++++)”.
In the case of “55 (SPVSASWIL; listed as Homo sapiens) [compound 55]”, the Peptide exchange [3] is reported as “++++ (≥75% = ++++)”.
In the case of “59 (AVDLGVLEL; listed as Homo sapiens) [compound 59]”, the Peptide exchange [3] is reported as “+++ (≥50% = +++)”.
“62 (SFSLLLPYL; listed as Homo sapiens) [compound 62]” was tested, and the “Binders” value [1] was “HLA-A*24:02” and the Peptide exchange [2] was “+++ (50% = +++)”.
“63 (MPANFETIGF; listed as Homo sapiens) [compound 63]” was tested, and the Peptide exchange [3] was “++++ (≥75% = ++++)”.
With “64 (LPTRSLPAF; listed as Homo sapiens) [compound 64]” the Peptide exchange [3] was “+++ (≥50% = +++)”.
In the case of “66 (RPLILIRI; listed as Homo sapiens) [compound 66]”, the Peptide exchange [3] is reported as “++ (≥20% = ++)”.
“67 (GRFWLPFNF; listed as Homo sapiens) [compound 67]” was tested, and the “Binders” value [1] was “HLA-A*24:02” and the Peptide exchange [2] was “++ (20% = ++)”.
With “69 (KYPTIICGF; listed as Homo sapiens) [compound 69]” the “Binders” value [1] was “HLA-A*24:02” and the Peptide exchange [2] was “++++ (75% = ++++)”.
For “76 (VQSGVPSRF; listed as Homo sapiens) [compound 76]”, the “Binders” value [1] was “HLA-A*24:02” and the Peptide exchange [2] was “++ (20% = ++)”.
With “77 (YPDVPIGQL; listed as Homo sapiens) [compound 77]” the Peptide exchange [3] was “+++ (≥50% = +++)”.
In the case of “78 (TPSHSTPSF; listed as Homo sapiens) [compound 78]”, the Peptide exchange [3] is reported as “+++ (≥50% = +++)”.
In the case of “80 (IFDLSDPRF; listed as Homo sapiens) [compound 80]”, the “Binders” value [1] is reported as “HLA-A*24:02” and the Peptide exchange [2] is reported as “++ (20% = ++)”.
“85 (LPHPVNSGL; listed as Homo sapiens) [compound 85]” was tested, and the Peptide exchange [3] was “+++ (≥50% = +++)”.
For “89 (SPSSPLLLLA; listed as Homo sapiens) [compound 89]”, the Peptide exchange [3] was “+++ (≥50% = +++)”.
“93 (SPIGLSLIL; listed as Homo sapiens) [compound 93]” was tested, and the Peptide exchange [3] was “++++ (≥75% = ++++)”.
With “96 (HPRESLNMLVAF; listed as Homo sapiens) [compound 96]” the Peptide exchange [3] was “++++ (≥75% = ++++)”.
“100 (SPAPSLARFLSL; listed as Homo sapiens) [compound 100]” was tested, and the Peptide exchange [3] was “++++ (≥75% = ++++)”.
“103 (RPWLSSPTGL; listed as Homo sapiens) [compound 103]” was tested, and the Peptide exchange [3] was “++++ (≥75% = ++++)”.
For “109 (MPKLFLTAC; listed as Homo sapiens) [compound 109]”, the Peptide exchange [3] was “++++ (≥75% = ++++)”.
With “110 (APSLARFLSL; listed as Homo sapiens) [compound 110]” the Peptide exchange [3] was “++++ (≥75% = ++++)”.
“111 (RPIWDVRSA; listed as Homo sapiens) [compound 111]” was tested, and the Peptide exchange [3] was “++++ (≥75% = ++++)”.
With “114 (VPHHLLSSV; listed as Homo sapiens) [compound 114]” the Peptide exchange [3] was “++++ (≥75% = ++++)”.
With “120 (APGPRSQGL; listed as Homo sapiens) [compound 120]” the Peptide exchange [3] was “+++ (≥50% = +++)”.
In the case of “124 (SPSSNSREL; listed as Homo sapiens) [compound 124]”, the Peptide exchange [3] is reported as “+++ (≥50% = +++)”.
In the case of “126 (NPELLVILL; listed as Homo sapiens) [compound 126]”, the Peptide exchange [3] is reported as “+++ (≥50% = +++)”.
“129 (IPISIFKMA; listed as Homo sapiens) [compound 129]” was tested, and the Peptide exchange [3] was “+++ (≥50% = +++)”.
In the case of “134 (MPCTTILRI; listed as Homo sapiens) [compound 134]”, the Peptide exchange [3] is reported as “++++ (≥75% = ++++)”.
In the case of “137 (MPIQVLKGL; listed as Homo sapiens) [compound 137]”, the Peptide exchange [3] is reported as “++++ (≥75% = ++++)”.
In the case of “140 (QPAPQPLL; listed as Homo sapiens) [compound 140]”, the Peptide exchange [3] is reported as “+++ (≥50% = +++)”.
For “155 (MPWVLMSPF; listed as Homo sapiens) [compound 155]”, the Peptide exchange [3] was “++++ (≥75% = ++++)”.
In the case of “156 (SLRVPSPAL; listed as Homo sapiens) [compound 156]”, the Peptide exchange [3] is reported as “+++ (≥50% = +++)”.
For “157 (APLRAGWAA; listed as Homo sapiens) [compound 157]”, the Peptide exchange [3] was “++++ (≥75% = ++++)”.
“162 (LPVHGPLPLLL; listed as Homo sapiens) [compound 162]” was tested, and the Peptide exchange [3] was “+++ (≥50% = +++)”.
“169 (RPQGVGPAA; listed as Homo sapiens) [compound 169]” was tested, and the Peptide exchange [3] was “++++ (≥75% = ++++)”.
For “175 (MPFLKVPPL; listed as Homo sapiens) [compound 175]”, the Peptide exchange [3] was “++++ (≥75% = ++++)”.
“182 (RPSLPCRSF; listed as Homo sapiens) [compound 182]” was tested, and the Peptide exchange [3] was “+++ (≥50% = +++)”.
“184 (VVHGGMSIF; listed as Homo sapiens) [compound 184]” was tested, and the Peptide exchange [3] was “++ (≥20% = ++)”.
For “185 (MPAFLSRASAL; listed as Homo sapiens) [compound 185]”, the Peptide exchange [3] was “++++ (≥75% = ++++)”.
In the case of “191 (APLLPGPAA; listed as Homo sapiens) [compound 191]”, the Peptide exchange [3] is reported as “++++ (≥75% = ++++)”.
“192 (IPLHFSTAF; listed as Homo sapiens) [compound 192]” was tested, and the Peptide exchange [3] was “++++ (≥75% = ++++)”.
For “199 (RAPLPLLLL; listed as Homo sapiens) [compound 199]”, the Peptide exchange [3] was “+++ (≥50% = +++)”.
With “207 (LPALLRSL; listed as Homo sapiens) [compound 207]” the Peptide exchange [3] was “++++ (≥75% = ++++)”.
With “208 (YVGPTRLEL; listed as Homo sapiens) [compound 208]” the Peptide exchange [3] was “++++ (≥75% = ++++)”.
In the case of “210 (ASRIQVILL; listed as Homo sapiens) [compound 210]”, the Peptide exchange [3] is reported as “+++ (≥50% = +++)”.
“214 (RPSPVRVAAL; listed as Homo sapiens) [compound 214]” was tested, and the Peptide exchange [3] was “++++ (≥75% = ++++)”.
In the case of “215 (TPLTRTTL; listed as Homo sapiens) [compound 215]”, the Peptide exchange [3] is reported as “+++ (≥50% = +++)”.
